Measured values taken from the RNAGym collection of RNA variant scans (doi:10.1073/pnas.2313332121).

B1: TPR t1 (parent)
chain: GACCAAUCUGCCCUCAGAGCUCGAGAACAUCUUCGGAUGCAGAGGAGGCAGGCUUCGGUGGCGCGAUAGCGCCAACGUCCUCAACCUCCAAUGCAUCCCACCACAUGAUGAUGCCUGAAGAGCCUUGGUUUUUUG

Variants of: B1
Experiment: polymerase ribozyme fitness, log enrichment relative to wild type (log ratio); higher = more active; in vitro selection for triplet polymerase activity
In short: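 Mutant libraries of each subunit of a heterodimeric triplet polymerase ribozyme were built by PCR and transcribed. Each library went through one round of in vitro selection in triplicate: annealing with biotinylated primer, partner subunit and triplets, frozen incubation at −7 °C, gel excision of extended constructs, streptavidin-bead capture and RT-PCR. Input and output libraries were Illumina-sequenced; only genotypes with ≥10 input reads and ≥1 read per output were kept. Fitness is log2(genotype enrichment/wild-type enrichment), using inverse-variance-weighted replicate averages.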
In the case of GACCAAUCUGCCCUCAGAGCUCGAGAACAUCUUCGGAUGCAGAGGAGGCAGGCUUCGGUGGCGCGAUACCGCCAACGUCCUCACCCUCCAAUGCAUCCCACCACAUGAUGAUGCCUGAAGAGCCUUGCUUUUUUG [G69C A84C G128C], the “polymerase ribozyme fitness (log ratio)” value is reported as -4.09. With GACCAAUCUGCCCUCAGAGCUCGAGAACAUCUUCGGAUGCAGAGGAGGCAGGCUUCGGUGGCGCGAUACCGCCAACGUCCUCAACCUCCAAUGCAUCCCACCACAUGAUGCUGCCUGAAGAGCCUUGGUUUUUUG [G69C A111C] the “polymerase ribozyme fitness (log ratio)” value was -0.894. In the case of GACCAAUCUGCCCUCAGAGCUCGAGAACAUCUUCGGAUGCAGAGGAGGCAGGCUUCGGUGGCGCGAUACCGCCAACGUCCUCGACCUCCAAUGCAUCCCACCACAUGAUGAUGCCUGAAGAGCCUUGGUUUUUUG [G69C A83G], the “polymerase ribozyme fitness (log ratio)” value is reported as -2.31. In the case of GACCAAUCUGCCCUCAGAGCUCGAGAACAUCUUCGGAUGCAGAGGAGGCAGGCUUCGGUGGCGCGAUACCGCCAACGUCCUCAACCUCCAAUGCAUCCCACCACAUGAUGAUGCCUGAAGGGCCUUGGUUUUUUG [G69C A121G], the “polymerase ribozyme fitness (log ratio)” value is reported as 0.734. In the case of GACCAAUCUGCCCUCAGAGCUCGAGAACAUCUUCGGAUGCAGAGGAGGCAGGCUUCGGUGGCGCGAUACCGCCAACGUCCUCAGCCUCCAAUGCAUCCCACCACAUGAUGAUGCCUGUAGAGCCUUAGUUUUUUG [G69C A84G A118U G127A], the “polymerase ribozyme fitness (log ratio)” value is reported as -2.68. With GACCAAUCUGCCCUCAGAGCUCGAGAACAUCUUCGGAUGCAGAGGAGGCAGGCUUCGGUGGCGCGAUACCGCAAACGUCCUCAACCUCCAAUGCAUCCCACCACAUGAUGAUGCCUGAAGAACGUUGGUUUUUUG [G69C C73A G122A C124G] the “polymerase ribozyme fitness (log ratio)” value was -0.387. In the case of GACCAAUCUGCCCUCAGAGCUCGAGAACAUCUUCGGAUGCAGAGGAGGCAGGCUUCGGUGGCGCGAUACUGCCAACGUCUUCAACCUCCAAUGCAUCCCACCACAUGAUGAGGCCUUUAGAGCCUUGGUUUUUUG [G69C C70U C80U U112G G117U A118U], the “polymerase ribozyme fitness (log ratio)” value is reported as -7.19. For GACCAAUCUGCCCUCAGAGCUCGAGAACAUCUUCGGAUGCAGAGGAGGCAGGCUUCGGUGGCGCGAUACCGCCAACGUCCUCAACCUCCAAUGCAUCCCACCACAUGAUGAUGCCUGAUGAGCCUUGGUUUUUUG [G69C A119U], the “polymerase ribozyme fitness (log ratio)” value was -1.32. In the case of GACCAAUCUGCCCUCAGAGCUCGAGAACAUCUUCGGAUGCAGAGGAGGCAGGCUUCGGUGGCGCGAUACCGCCAACGUCCUCAACCUCCAAUGCAUCCCACCACAUGAUGAUGCCUGAGGAGCCUUGGUUUUUUG [G69C A119G], the “polymerase ribozyme fitness (log ratio)” value is reported as -0.227. For GACCAAUCUGCCCUCAGAGCUCGAGAACAUCUUCGGAUGCAGAGGAGGCAGGCUUCGGUGGCGCGAUAACGCCAACGUCCUCAACCUCCAAUGCAUCCCACCACAUGAUGAUGCCUGAAGAGCCUUGGUCUUUUG [G69A U130C], the “polymerase ribozyme fitness (log ratio)” value was -3.09. In the case of GACCAAUCUGCCCUCAGAGCUCGAGAACAUCUUCGGAUGCAGAGGAGGCAGGCUUCGGUGGCGCGAUAACGCCAACGUCCUCAACCUCCAAUGCAUCCCACCACAUGAUGAUGCCUGAAGAGCCUUGGUAUUUUG [G69A U130A], the “polymerase ribozyme fitness (log ratio)” value is reported as -3.11. In the case of GACCAAUCUGCCCUCAGAGCUCGAGAACAUCUUCGGAUGCAGAGGAGGCAGGCUUCGGUGGCGCGAUAACGCCAACGUCCUCAACCUCCAAUGCAUCCCACCACAUGAUGAUGCCUGAAGAGCCUUGGUGUUUUG [G69A U130G], the “polymerase ribozyme fitness (log ratio)” value is reported as -2.69. With GACCAAUCUGCCCUCAGAGCUCGAGAACAUCUUCGGAUGCAGAGGAGGCAGGCUUCGGUGGCGCGAUACUGCCAACGUCCUCAACCUCCAAUGCAUCCCACCACAUGAUGAUGCCUGAAGAGCCUUGGUUUUUUG [G69C C70U] the “polymerase ribozyme fitness (log ratio)” value was -3.87. In the case of GACCAAUCUGCCCUCAGAGCUCGAGAACAUCUUCGGAUGCAGAGGAGGCAGGCUUCGGUGGCGCGAUACCGCCAACGUCCUCACCCUCCAAUGCAUCCCACCACAUGAUGAUGCCUGAAGAGCCAUGGUUUUUUG [G69C A84C U125A], the “polymerase ribozyme fitness (log ratio)” value is reported as -2.42. For GACCAAUCUGCCCUCAGAGCUCGAGAACAUCUUCGGAUGCAGAGGAGGCAGGCUUCGGUGGCGCGAUACCGUCAACGUCCUCAACCUCCAACGCAUCCCAUCACAUGAUGAUGCCUUAAGAGCCUUGGUUUUUUG [G69C C72U U92C C101U G117U], the “polymerase ribozyme fitness (log ratio)” value was -5.11. In the case of GACCAAUCUGCCCUCAGAGCUCGAGAACAUCUUCGGAUGCAGAGGAGGCAGGCUUCGGUGGCGCGAUACCGCCAACGUCCUCAACCUCCAUUGCAUCCCACCACAUGAUGAUGCCUGAAGAGCCUUGGUUUUUUG [G69C A91U], the “polymerase ribozyme fitness (log ratio)” value is reported as -3.08. With GACCAAUCUGCCCUCAGAGCUCGAGAACAUCUUCGGAUGCAGAGGAGGCAGGCUUCGGUGGCGCGAUACCGCCAACGUCCUCGACCUCCAAUGCAUCCCACCACAUGAUGAUGCCUGAACAGCCUUGGUUUUUUG [G69C A83G G120C] the “polymerase ribozyme fitness (log ratio)” value was -1.54. In the case of GACCAAUCUGCCCUCAGAGCUCGAGAACAUCUUCGGAUGCAGAGGAGGCAGGCUUCGGUGGCGCGAUACAGCCAACGUCCUCAACCUCCAAUGCAUCCCACCACAUGAUGAUGCCUAAAGGGCCUUGGUUUUUUG [G69C C70A G117A A121G], the “polymerase ribozyme fitness (log ratio)” value is reported as -6.08. With GACCAAUCUGCCCUCAGAGCUCGAGAACAUCUUCGGAUGCAGAGGAGGCAGGCUUCGGUGGCGCGAUACCGCCAACGUCCUCAACCUCCAAUGCAUCCCACCACUUGAUGAGGCCUGAAGAGCCUUGGUUUUUUG [G69C A105U U112G] the “polymerase ribozyme fitness (log ratio)” value was -3.4. In the case of GACCAAUCUGCCCUCAGAGCUCGAGAACAUCUUCGGAUGCAGAGGAGGCAGGCUUCGGUGGCGCGAUACCGCCAACGUCCUCAACCUCCUAUGCAUCCCACCACAUGAUGAUGCCUGAAGAGCCUUGGUUUUUUG [G69C A90U], the “polymerase ribozyme fitness (log ratio)” value is reported as -2.68. In the case of GACCAAUCUGCCCUCAGAGCUCGAGAACAUCUUCGGAUGCAGAGGAGGCAGGCUUCGGUGGCGCGAUACCGCCAACGUCCUCAACCUCCACUGCAUCCCACCACAUGAUGAUUCCUGAAGAGCCUUGGUUUUUUG [G69C A91C G113U], the “polymerase ribozyme fitness (log ratio)” value is reported as -4.43.
